The results in this text go back to publication PMC8630228.

The experiment addresses precursor δ-latroinsectotoxin (full-length precursor δ-LIT) (Latrodectus tredecimguttatus). Put plainly: cryo-EM, reference-free 2D classification of particles; full-length δ-LIT at 0.4 mg/ml on holey carbon grids; particles sorted into monomer, dimer, trimer and tetramer classes.

Values joined by “and” are separate entries in the source; they are usually repeats but may differ in a detail not shown here. Equal entries are not always repeated.

As a reminder, the stoichiometry N is a count of units in the complex or per binding partner. For “precursor δ-latroinsectotoxin (full-length precursor δ-LIT) (natural protein)”, the percent of particles that are dimers is 50%; the percent of particles that are tetramers worked out at 2.5%; the percent of particles that are trimers came to 2.5%; the stoichiometry N is 2 and 3 and 4.
